Our source for the stoichiometry N values is article PMC8504119.

In this experiment the target is tetrameric biotin non-binding streptavidin 'Dead' (SA-4D) (UniProt P22629). The experiment in a line: SDS-PAGE without boiling; refolded, purified SA-A and SA-D; samples not subjected to thermal denaturation keep the tetramer.

Regarding “tetrameric biotin non-binding streptavidin 'Dead' (SA-4D) (from UniProt P22629 25-183) (natural protein)”, the stoichiometry N turned out to be 4.
